According to publication PMC4900187:

Biological target: FITC–BID BH3
Experiment: fluorescence polarisation

Chain of MCL-1ΔNΔC (Q07820 172-327, stated change not applied): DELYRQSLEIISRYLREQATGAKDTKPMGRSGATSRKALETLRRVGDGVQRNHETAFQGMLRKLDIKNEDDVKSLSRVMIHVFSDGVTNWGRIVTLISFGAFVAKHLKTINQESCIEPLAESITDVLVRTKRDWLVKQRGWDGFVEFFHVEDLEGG
Chain of MAIM1-derivatized MCL-1ΔNΔC (Q07820 172-327, stated change not applied): as above

EC50	Substance
85 nM	MAIM1-derivatized MCL-1ΔNΔC (from UniProt Q07820 172-327) (domain or fragment)
21 nM	MCL-1ΔNΔC (from UniProt Q07820 172-327) (domain or fragment)
109 nM	MCL-1ΔNΔC C286W (from UniProt Q07820 172-327) (domain or fragment)
